The values below come from US20210079080A1 (Hoffmann-La Roche, published 2021).

Assay [1] deals with T1, VEGF-121-His (inhouse production) (human, UniProt P15692 207-395).
T1 construct: His-tagged human VEGF-A121 used in the ELISAs and (captured by an anti-His antibody) in SPR; also called hVEGF-A121; his VEGF; not shown: His tag
T1 sequence: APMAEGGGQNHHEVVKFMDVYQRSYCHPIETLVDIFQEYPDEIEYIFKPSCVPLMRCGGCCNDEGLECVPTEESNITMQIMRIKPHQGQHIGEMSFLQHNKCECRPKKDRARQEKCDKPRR
Kind of assay: SPR (Biacore), hVEGF-A121 captured by anti-His antibody, Fab injected, 25° C. As for the experimental part: (§1) The surface was regenerated by injecting 10 mM Glycine pH 1.5 for 60s. […] Rate constants were calculated using the Langmuir 1:1 binding model within the Biacore® Evaluation software.
(§2) The affinity of the antibodies was determined by SPR using the same methods as described in Example 2. All Fab fragments of antibodies of the invention as listed in table 1 and table 5 were tested.
For orientation: SPR reads the build-up and loss of mass on a sensor chip optically.

The target of assay [2] is T1, VEGF-121-His (inhouse production). Kind of assay: inhibition ELISA: antibody titrated against 0.7 nM VEGF-121-His; blocked partner plate-bound biotinylated VEGF-R1; anti-His POD readout. (ELISA stands for enzyme-linked immunosorbent assay.)
For assay [3] the target is unchanged. The assay is described as follows: SPR (Biacore), hVEGF-A121 captured by anti-His antibody, Fab injected, 37° C. How it is done: as §1, §2
Assay [4] shares this target. The assay is described as follows: inhibition ELISA: antibody titrated against 0.7 nM VEGF-121-His; blocked partner plate-bound biotinylated VEGF-R2; anti-His POD readout.
Assay [5] has the same target. The description is as above. How it is done:
(§3) Plates were incubated for 1 h at room temperature. […] Plates were incubated for 1 h at room temperature. […] After washing 3 times with 90 μl/well PB ST-buffer, 25 μl/well detection antibody (anti His POD, Bethyl, #A190-114P, 1:12000) in 1×OSEP was added. After incubation for 1 h at room temperature plates were washed 3 times with 90 μl PBST-buffer. 25 μl TMB (Roche, #11 835 033 001) was added to all wells simultaneously. After 10 min incubation at room temperature, signals were detected at 370 nm/492 nm on a Tecan Safire 2 Reader.
The source holds these as a separate data set.

Assay [6] has the same target. Kind of assay: inhibition ELISA: antibody titrated against 0.4 nM VEGF-121-His; blocked partner plate-bound biotinylated VEGF-R2; anti-His POD readout.
For assay [7] the target is unchanged. Kind of assay: direct ELISA on plate-coated VEGF-121-His. As for the experimental part: After washing 3 times with 90 μl/well PBST-buffer (bidest water, 10×PBS Roche #11666789001+0.1% Tween® 20) blocking buffer (bidest water, 10×PBS Roche #11666789001+2% Bovine Serum Albumin Fraction V, fatty acid free, Roche, #10735078001+0.05% Tween® 20) was added 90 μl/well and incubated for 1 h at room temperature. […] After incubation for 1 h at room temperature, plates were again washed 3 times with 90 μl/well PBST-buffer. […] After washing 3 times with 90 μl A PBST-buffer, 25 μl TMB (Roche, #11 835 033 001) was added to each well. After 3 min incubation at RT, signals were detected at 370 nm/492 nm on a Tecan Safire 2 Reader.

The target is the same in assay [8]. The assay is described as follows: SPR (Biacore), hVEGF-A121 captured by anti-His antibody, Fab injected, 37° C. As for the experimental part:
as §1
(§4) The affinity of the antibodies was determined by SPR using the same methods as described in Example 2. All Fab fragments as listed in table 1 and table 2 were tested.
This is another data set of the same source.

Assay [9] deals with T2, human VEGF-A121 (human, UniProt P15692 207-395).
T2 sequence: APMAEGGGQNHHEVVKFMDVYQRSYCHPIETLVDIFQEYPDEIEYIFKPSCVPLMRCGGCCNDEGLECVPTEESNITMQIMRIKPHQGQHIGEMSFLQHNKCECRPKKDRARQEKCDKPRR
The assay is described as follows: cell-based or functional assay.

For assay [10], the target named is T1, VEGF-121-His (inhouse production). Kind of assay: Biacore, Fab stressed 2 w/40° C./pH 6.0. How it is done:
(§5) Antibody samples were formulated in 20 mM His/HisCl, 140 mM NaCl, pH 6.0, and were split into three aliquots: one aliquot was re-buffered into PBS, respectively, and two aliquots were kept in the original formulation. The PBS aliquot and one His/HisCl aliquot were incubated for 2 weeks (2 w) at 40° C. (His/NaCl) or 37° C. (PBS) in 1 mg/ml, the PBS sample was incubated further for total 4 weeks (4 w). The third control aliquot sample was stored at −80° C.

For assay [11] the target is unchanged. Kind of assay: SPR (Biacore), hVEGF-A121 captured by anti-His antibody, Fab injected, 25° C. As for the experimental part: as §1, §4
The source holds these as a separate data set.

Assay [12] shares this target. Kind of assay: Biacore, Fab stressed 4 w/37° C./pH 7.4. As for the experimental part: as §5
Assay [13] shares this target. Kind of assay: inhibition ELISA: antibody titrated against 0.7 nM VEGF-121-His; blocked partner plate-bound biotinylated VEGF-R2; anti-His POD readout. How it is done: as §3
The source holds these as a separate data set.

Assay [14] shares this target. Kind of assay: Biacore, Fab stressed 2 w/37° C./pH 7.4. How it is done: as §5

B1: HF2-5 Fab fragment (Fab, V domains shown)
VH: EVQLVESGGGLVQPGGSLRLSCAASGFMIRSHGMQWVRQAPGKGLEYVAGISSDGSWARHSAAVEGRFTISRDDSKNTAYLQMNSLRAEDTAVYYCARDFSTGYGADSIDAWGQGTLVTVSS
VL: DIQMTQSPSSLSASVGDRVTITCSGGSDSAYGYGWYQQKPGKAPKTLIYWDDKRPSGVPSRFSGSRSGTDFTLTISSLQPEDFATYYCGAWEYSGGVGIFGQGTKVEIKR
notes: Prior art antibody disclosed in EP3006465
Turning to B1, the values for the Kd in assay [1] and in assay [3] were 0.052 nM and 0.109 nM, respectively. Further, the “IC50 (read off the curve)” value in [2] is around 0.9 nM; in assay [4] it was around 0.7 nM.

B2: VEGF-0089 Fab fragment (Fab, V domains shown)
VH: EVQLVESGGGLVQPGGSLRLSCAASGFTFTNYAMTWVRQAPGKGLEWVSSIGNGGGIYTYYADSVKGRFTISRDNSKNTLYLQMNSLRAEDTAVYYCAKGDNLFDSWGPGTLVTVSS
VL: DIQMTQSPASLSASVGDRVTITCRASQSIYSSLNWYQQKPGKAPKLLIYASTLQSGVPSRFSGSASGTDFTLTISSLQPEDVATYYCQQYQNFPRTFGQGTKLEIKR
notes: also called antibody VEGF-0089
Consider B2, for which the “IC50 (read off the curve)” value was around 10 ng/mL in assay [5], around 0.2 nM in [6] and 1 to 2 nM in assay [13]. In addition, the dissociation constant Kd in assay [1] worked out at 0.143 nM; in [8], 0.099 nM; in assay [11] it was 0.134 nM; in assay [3], 0.11 nM. Moreover, the “EC50 (read off the curve)” value in assay [7] is around 0.2 nM. Further, the “IC50 in reporter gene assay (HEK293-NFAT-RE-Luc2P/KDR cells, luminescence, 25 ng/ml VEGF-A121)” value in assay [9] was 0.59 nM. Besides, the “VEGF-binding activity after stress (relative active concentration, normalized to unstressed aliquot)” value in assay [10] came out at 101; in [12] it was 101; in assay [14], 102.

One may read the Kd as the constant that tells how readily two partners part at equilibrium. Usually EC50 (read off the curve) stands for the midpoint of the concentration-response curve. A lower EC50 (read off the curve) goes with an effect from little substance.
